Experimental findings from patent US20240132578A1 are described below.

Holding throughout (test): cell-based or functional assay
Assay [1] addresses HIV-1 Env of isolate MG RM-A-005 (pseudovirus) (HIV-1).
Assay [2] addresses HIV-1 Env of isolate MGRM-D-003 (HIV-1).
The target of assay [3] is HIV-1 Env of isolate 92TH021 (pseudovirus) (HIV-1).
In assay [4] the target is HIV-1 Env of isolate MGRM-D-004 (HIV-1).
The target in assay [5] is HIV-1 Env of pseudovirus MGRM-F1-020 (HIV-1).
Assay [6] deals with HIV-1 Env of pseudovirus MGRM-D-013 (HIV-1).
Assay [7] deals with HIV-1 envelope glycoprotein (Env) of isolate MG RM-AG-011 (HIV-1).

A value given as a limit tells only on which side of the number the result lay.

Sequence of PGT-144 (4970_K22) (antibody) (VH): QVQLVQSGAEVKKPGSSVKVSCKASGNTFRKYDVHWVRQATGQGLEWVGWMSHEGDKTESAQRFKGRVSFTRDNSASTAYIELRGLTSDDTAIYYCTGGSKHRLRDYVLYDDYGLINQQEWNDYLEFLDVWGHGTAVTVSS
Sequence of PGT-144 (4970_K22) (antibody) (VL): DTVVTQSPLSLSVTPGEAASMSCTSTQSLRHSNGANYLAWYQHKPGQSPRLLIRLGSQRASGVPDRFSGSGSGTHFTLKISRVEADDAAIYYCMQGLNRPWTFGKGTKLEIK
Sequence of PGT-142 (4995_E20) (antibody) (VH): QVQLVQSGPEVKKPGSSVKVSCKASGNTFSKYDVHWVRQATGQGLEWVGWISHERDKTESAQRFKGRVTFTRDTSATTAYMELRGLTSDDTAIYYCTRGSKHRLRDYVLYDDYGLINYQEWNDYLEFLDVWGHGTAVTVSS
Sequence of PGT-142 (4995_E20) (antibody) (VL): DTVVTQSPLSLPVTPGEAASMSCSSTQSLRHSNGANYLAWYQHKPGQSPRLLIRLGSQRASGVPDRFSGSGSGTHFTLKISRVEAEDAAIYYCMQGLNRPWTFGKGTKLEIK
Sequence of 4993_K13 (PGT-141) (antibody) (VH): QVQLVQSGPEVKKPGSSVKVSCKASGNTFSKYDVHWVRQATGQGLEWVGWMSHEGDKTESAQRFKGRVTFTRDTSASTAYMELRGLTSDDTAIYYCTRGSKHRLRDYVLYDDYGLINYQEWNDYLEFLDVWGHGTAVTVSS
Sequence of 4995_P16 (PGT-145) (antibody) (VH): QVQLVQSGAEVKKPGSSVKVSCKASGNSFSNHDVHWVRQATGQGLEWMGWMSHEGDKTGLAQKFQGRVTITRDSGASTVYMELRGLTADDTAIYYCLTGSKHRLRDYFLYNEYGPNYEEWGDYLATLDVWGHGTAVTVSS
Sequence of 4995_P16 (PGT-145) (antibody) (VL): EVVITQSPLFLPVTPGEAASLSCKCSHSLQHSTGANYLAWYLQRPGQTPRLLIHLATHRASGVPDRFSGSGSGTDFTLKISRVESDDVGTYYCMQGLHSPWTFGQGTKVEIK
Sequence of 4980_N08 (PGT-143) (antibody) (VH): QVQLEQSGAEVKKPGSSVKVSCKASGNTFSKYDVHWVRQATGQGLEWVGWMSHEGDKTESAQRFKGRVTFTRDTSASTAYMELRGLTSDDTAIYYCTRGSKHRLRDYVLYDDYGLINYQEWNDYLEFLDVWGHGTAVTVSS
Sequence of 4980_N08 (PGT-143) (antibody) (VL): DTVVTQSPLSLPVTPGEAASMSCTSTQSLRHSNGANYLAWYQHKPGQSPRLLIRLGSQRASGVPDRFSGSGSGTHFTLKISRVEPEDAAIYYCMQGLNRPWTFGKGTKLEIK

In the case of 4995_P16 (PGT-145) (antibody), the IC50 (µg/mL), single-round pseudovirus neutralization in assay [1] was determined as 0.128 µg/mL; in assay [3], 0.013 µg/mL. For the same substance, the values for the IC50 (µg/mL), pseudovirus neutralization in assay [2] and in assay [4] were 0.006 µg/mL and 10.9 µg/mL, respectively.

Regarding 4980_N08 (PGT-143) (antibody), the IC50 (µg/mL), single-round pseudovirus neutralization worked out at 7.48 µg/mL in assay [1] and 0.003 µg/mL in assay [3]. For the same substance, the IC50 (µg/mL), pseudovirus neutralization in assay [2] and in assay [4] was more than 50 µg/mL each time.

For 4970_K22 (PGT-144) (antibody), the IC50 (µg/mL), single-round pseudovirus neutralization in assay [1] amounted to 18.6 µg/mL; in assay [3], 0.052 µg/mL. The IC50 (µg/mL), pseudovirus neutralization in assay [2] and in assay [4] was more than 50 µg/mL throughout.

Take PGT-141 (4964_G22; 4993_K13) (antibody): the results for the IC50, pseudovirus neutralization in assay [5] and in assay [6] were 1.15 µg/mL and 0.179 µg/mL, respectively. Besides, in assay [7], the IC50 is 0.118 µg/mL.

For VRC01 (antibody), the IC50, pseudovirus neutralization in assay [5] came to 1.89 µg/mL; in assay [6], 0.087 µg/mL. In addition, the results for the IC50 (µg/mL), single-round pseudovirus neutralization in assay [1] and in assay [3] were 0.095 µg/mL and 0.616 µg/mL, respectively. The results for the IC50 (µg/mL), pseudovirus neutralization in assay [2] and in assay [4] were 2.06 µg/mL and 1.25 µg/mL, respectively. For the same substance, the IC50 in assay [7] worked out at 0.084 µg/mL.

Take PGT-144 (4970_K22) (antibody): the IC50, pseudovirus neutralization in assay [5] is 8.93 µg/mL; in assay [6] it was more than 50 µg/mL. In assay [7], this substance registered an IC50 of 44.6 µg/mL.

On to 4995_E20 (PGT-142) (antibody), for which the IC50 (µg/mL), single-round pseudovirus neutralization in assay [1] is 9.7 µg/mL; in assay [3], 0.002 µg/mL. Moreover, the IC50 (µg/mL), pseudovirus neutralization in assay [2] and in assay [4] was more than 50 µg/mL each time.

Consider PGT-142 (4995_E20) (antibody), for which the IC50, pseudovirus neutralization in assay [5] was determined as 0.824 µg/mL; in assay [6], 0.221 µg/mL. The substance further gave an IC50 in assay [7] of 0.081 µg/mL.

For the substance 4993_K13 (PGT-141) (antibody), the IC50 (µg/mL), single-round pseudovirus neutralization was 11.1 µg/mL in assay [1] and 0.001 µg/mL in assay [3]. In addition, the IC50 (µg/mL), pseudovirus neutralization in assay [2] and in assay [4] was more than 50 µg/mL each time.

Regarding PGT-143 (4980_N08) (antibody), the IC50, pseudovirus neutralization in assay [5] came out at 0.98 µg/mL; in assay [6] it was 0.386 µg/mL. Further, in assay [7], the IC50 stood at 0.156 µg/mL.

Regarding PGT-145 (4995_P16) (antibody), the IC50, pseudovirus neutralization in assay [5] was 0.816 µg/mL; in assay [6], 3.48 µg/mL. The substance further yielded an IC50 in assay [7] of 0.003 µg/mL.
